Experimental data taken from patent US7977317B2, “Compositions and methods for modulating blood-brain barrier transport” (Raptor Pharmaceutical Inc., priority 2001, dated 2011).

Columns and labels:
Megalin = Megalin (Homo sapiens, UniProt P98164); settings: Tables 1-3; cited from earlier work
LRP = LRP (Homo sapiens, UniProt Q07954); settings: Tables 1-3; cited from earlier work
human brain capillaries = experiment: Accumulation/uptake of [125I]-p97 in isolated human brain capillaries; assay type: binding
Description: FIG. 5. Accumulation of p97 in human brain capillaries. Accumulation of [^125I]-p97 was measured at 37° C. for 1 h in isolated human brain capillaries (100 μg/assay). The incubation medium contained [^125I]-p97 and a final concentration of 100 nM p97 in Ringer/Hepes solution. The accumulation of [^125I]-p97 was performed in the presence or absence of 5 μm cold-p97, holo-transferrin or lactoferrin. […] The suspension was filtered under vacuum through a […] pore size Millipore filter. The filter was rinsed with 8 ml of stop solution, and the radioactivity was counted. Nonspecific binding of the radioactivity to the capillaries was determined by the addition of the ice-cold stop solution to the capillaries before adding the incubation medium. This value was subtracted from accumulation values obtained following an 1 h incubation. The results were expressed as ng of [^125I]-p97 accumulated per μg of brain capillaries.
FIG. 16 illustrates the identification of a p97 receptor according to ligand specificity. FIG. 16a, Uptake of [^125I]-p97 into human brain capillaries. The uptake of [^125I]-p97 at 100 nM (control) into isolated human brain capillaries was measured for 1 h at 37° C. in the presence of a 50-fold molar excess of unlabelled p97, human holo-transferrin or human lactoferrin. (*[…] Student's t-test (n=5); FIG. 16b, Effect of RAP on [^125I]-p97 transcytosis across BBCEC monolayers. Apical-to-basal transport of [^125I]-p97 was measured in the presence (closed circles) or absence (open circles) of RAP (25 μg/ml) (n=5); FIG. 16c, Inhibition of bovine [^125I]-lactoferrin transport by p97. Transcytosis of bovine [^125I]-lactoferrin (50 nM) was measured in the presence (closed circles) or absence (open circles) of unlabelled p97 (5 μM) at 37° C. (n=3).
A. Isolation of human brain capillaries. Capillaries of the blood-brain barrier were isolated from human brain cortex by a procedure previously described by Dallaire, et al., J. Biol. Chem., 267:22323-22327 (1992) with slight modifications. Human brains were obtained post-mortem. The brain was cleared of meninges, superficial large blood vessels and choroid plexus. All the following procedures were performed at 4° C. The cerebral cortex was homogenized in 5 volumes of Ringer/Hepes solution with a Polytron (Brinkman Instruments, Rexdale, Ontario, Canada). The homogenate was mixed with an equal volume of Dextran T-70 (27 g in 100 ml of Ringer/Hepes). The suspension was centrifuged at 25,000 g for 10 min. The pellet was resuspended in 30 ml of Ringer/Hepes and passed through a 250 μm nylon mesh screen. […]
B. p97 accumulation in human brain capillaries. […] Accumulation of [^125I]-p97 was measured at 37° C. for 1 h in isolated human brain capillaries (100 μg/assay). […]

BBCEC monolayers = experiment: Transcytosis across BBCEC monolayers (in vitro BBB model); assay type: cell-based, bovine
Source text: FIG. 10 assesses the ability of several agents to interfere with p97 transyctosis. FIG. 10a, transcytosis of I125-P97 was compared in the presence of cold p97 (5 micromolar), Lf (5 micromolar), and Tf (5 micromolar). […] FIG. 10c, RAP, a known poly-peptide inhibitor of the LDL-Receptor family was applied to the cells (25 micrograms/ml).
FIG. 11 examines the accumulation and transcytosis of p97. FIG. 11a, of [^125I]-p97, [^125I]-BSA and [^125I]-holo-transferrin one hour after i.v. injection. The radioactivity in brain was compared between the three compounds. (n=3); FIG. 11b, Accumulation of p97 and transferrin into the mouse brain parenchyma. In situ brain perfusion was performed with human [^125I]-p97 or [^125I]-holo-transferrin at a final concentration of 10 nM via a catheter inserted in the right common carotid artery. The volume of distribution (VD) of [^125I]-proteins were obtained in the whole brain homogenate (white bars), in brain capillaries (solid bars) and in brain parenchyma (hatched bars) after isolation of the right hemisphere and capillary depletion. Results were obtained for p97 (n=10) and for holo-transferrin (n=6); FIG. 11c, Transcytosis of p97 across BBCEC monolayers. Transcytosis experiments were performed 37° C. (open circles) and 4° C. (closed circles) with BBCEC monolayers. [^125I]-p97 (1 mg/ml) was added to the upper side of the cell-covered filter. One representative experiment is shown (n=4); FIG. 11d, Preferential transport of p97 across the BBCEC monolayers. Apical-to-basal and basal-to-apical transport of [^125I]-p97 (25 nM) was measured for 2 hrs at 37° C. At the end of the experiment, [^125I]-p97 was assessed in the lower or upper chambers of each well by TCA precipitation (n=4).
FIG. 13 illustrates the transcytosis and accumulation of p97 and transferrin in BBCEC monolayers. FIG. 13a, Transcytosis experiments were performed at 37° C. (solid bars) or 4° C. (white bars). [^125I]-p97 or bovine [^125I]-holo-transferrin (1 mg/ml) was added to the upper side of the cell-covered filter. At the end of the experiment, radiolabelled proteins were measured in the lower chamber of each well by TCA precipitation (n=4). Controls were also performed at 37° C. with denatured [^125I]-p97 or bovine [^125I]-holo-transferrin boiled for 30 min (grey bars) (n=2); FIG. 13b, Biospecific interaction analysis was performed with native or boiled p97 for the indicated times. MAb L235 (5 μg) was immobilized on a sensor chip (SM5) using standard procedures incorporating NHS, EDC and ethanolamine. Native and boiled p97 (5 to 30 min) diluted at 1 mg/ml in Ringer/Hepes was cooled and injected into the BIAcore. The surface plasmon resonance response obtained for native p97 and boiled p97 was plotted (in relative units (RU)) as a function of time; FIG. 13c, The accumulation of both proteins into BBEC cells were also measured. Briefly, after incubation at 37° C. (solid bars) or 4° C. (white bars) with either [^125I]-protein, cells were washed four times with cold PBS. Accumulation of both denatured proteins (grey bars) was also measured at 37° C. Filters were then removed, and the radioactivity associated with the cells was quantified (n=3).
FIG. 14 illustrates the stability of p97 and integrity of the BBCEC monolayers following p97 transcytosis. FIG. 14a, Transcytosis experiments were performed at 37° C. and 4° C. by adding p97 (1 mg/ml) to the upper compartment. At the end of the experiment, 50 μl from each lower chamber was used for SDS-polyacrylamide gel electrophoresis. After electrophoresis, the gels were stained with Coomassie Blue. A standard curve was also made with known amounts of recombinant p97 (0-2 μg); FIG. 14b. The gels were dried and scanned to quantify the amount of intact p97 that crossed the BBCEC monolayers at 37° C. and 4° C. (n=3); FIG. 14c, Effect of p97 on sucrose permeability of BBCE cell monolayers co-cultured with astrocytes. […]

VLDL-R = VLDL-R (Homo sapiens, UniProt P98155); settings: Tables 1-3; cited from earlier work
ER-2 = biological target: T1, ER-2 (Homo sapiens, UniProt Q14114); settings: Tables 1-3; cited from earlier work
T1 sequence (Q14114 33-963): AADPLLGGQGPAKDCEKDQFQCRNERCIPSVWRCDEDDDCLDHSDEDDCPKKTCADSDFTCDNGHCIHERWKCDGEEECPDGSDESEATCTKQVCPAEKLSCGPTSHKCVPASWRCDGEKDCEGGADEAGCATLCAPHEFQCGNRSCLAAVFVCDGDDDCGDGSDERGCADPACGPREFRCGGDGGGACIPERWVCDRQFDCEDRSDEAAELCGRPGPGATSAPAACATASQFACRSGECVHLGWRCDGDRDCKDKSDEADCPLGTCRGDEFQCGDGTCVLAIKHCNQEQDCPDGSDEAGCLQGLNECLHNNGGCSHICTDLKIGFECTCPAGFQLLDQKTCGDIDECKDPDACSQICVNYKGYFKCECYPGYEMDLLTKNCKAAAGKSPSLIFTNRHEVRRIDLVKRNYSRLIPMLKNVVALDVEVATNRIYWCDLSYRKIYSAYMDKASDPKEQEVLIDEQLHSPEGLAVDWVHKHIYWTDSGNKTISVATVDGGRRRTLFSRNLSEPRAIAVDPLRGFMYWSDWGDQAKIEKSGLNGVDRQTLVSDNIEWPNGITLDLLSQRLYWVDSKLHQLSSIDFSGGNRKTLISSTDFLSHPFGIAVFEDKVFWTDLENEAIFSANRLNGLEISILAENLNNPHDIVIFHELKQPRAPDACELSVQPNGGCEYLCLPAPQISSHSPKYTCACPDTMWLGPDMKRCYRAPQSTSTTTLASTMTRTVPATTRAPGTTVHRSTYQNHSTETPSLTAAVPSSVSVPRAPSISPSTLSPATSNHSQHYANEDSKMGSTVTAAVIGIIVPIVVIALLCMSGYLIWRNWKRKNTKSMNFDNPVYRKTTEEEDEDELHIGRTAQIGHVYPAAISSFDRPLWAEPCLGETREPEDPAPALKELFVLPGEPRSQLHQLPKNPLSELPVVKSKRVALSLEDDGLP

LR11 = LR11 (Homo sapiens, UniProt Q92673); settings: Tables 1-3; cited from earlier work
LDL-R = LDL-R (Homo sapiens, UniProt P01130); settings: Tables 1-3; cited from earlier work

LRP, sequence (Q07954 20-4544): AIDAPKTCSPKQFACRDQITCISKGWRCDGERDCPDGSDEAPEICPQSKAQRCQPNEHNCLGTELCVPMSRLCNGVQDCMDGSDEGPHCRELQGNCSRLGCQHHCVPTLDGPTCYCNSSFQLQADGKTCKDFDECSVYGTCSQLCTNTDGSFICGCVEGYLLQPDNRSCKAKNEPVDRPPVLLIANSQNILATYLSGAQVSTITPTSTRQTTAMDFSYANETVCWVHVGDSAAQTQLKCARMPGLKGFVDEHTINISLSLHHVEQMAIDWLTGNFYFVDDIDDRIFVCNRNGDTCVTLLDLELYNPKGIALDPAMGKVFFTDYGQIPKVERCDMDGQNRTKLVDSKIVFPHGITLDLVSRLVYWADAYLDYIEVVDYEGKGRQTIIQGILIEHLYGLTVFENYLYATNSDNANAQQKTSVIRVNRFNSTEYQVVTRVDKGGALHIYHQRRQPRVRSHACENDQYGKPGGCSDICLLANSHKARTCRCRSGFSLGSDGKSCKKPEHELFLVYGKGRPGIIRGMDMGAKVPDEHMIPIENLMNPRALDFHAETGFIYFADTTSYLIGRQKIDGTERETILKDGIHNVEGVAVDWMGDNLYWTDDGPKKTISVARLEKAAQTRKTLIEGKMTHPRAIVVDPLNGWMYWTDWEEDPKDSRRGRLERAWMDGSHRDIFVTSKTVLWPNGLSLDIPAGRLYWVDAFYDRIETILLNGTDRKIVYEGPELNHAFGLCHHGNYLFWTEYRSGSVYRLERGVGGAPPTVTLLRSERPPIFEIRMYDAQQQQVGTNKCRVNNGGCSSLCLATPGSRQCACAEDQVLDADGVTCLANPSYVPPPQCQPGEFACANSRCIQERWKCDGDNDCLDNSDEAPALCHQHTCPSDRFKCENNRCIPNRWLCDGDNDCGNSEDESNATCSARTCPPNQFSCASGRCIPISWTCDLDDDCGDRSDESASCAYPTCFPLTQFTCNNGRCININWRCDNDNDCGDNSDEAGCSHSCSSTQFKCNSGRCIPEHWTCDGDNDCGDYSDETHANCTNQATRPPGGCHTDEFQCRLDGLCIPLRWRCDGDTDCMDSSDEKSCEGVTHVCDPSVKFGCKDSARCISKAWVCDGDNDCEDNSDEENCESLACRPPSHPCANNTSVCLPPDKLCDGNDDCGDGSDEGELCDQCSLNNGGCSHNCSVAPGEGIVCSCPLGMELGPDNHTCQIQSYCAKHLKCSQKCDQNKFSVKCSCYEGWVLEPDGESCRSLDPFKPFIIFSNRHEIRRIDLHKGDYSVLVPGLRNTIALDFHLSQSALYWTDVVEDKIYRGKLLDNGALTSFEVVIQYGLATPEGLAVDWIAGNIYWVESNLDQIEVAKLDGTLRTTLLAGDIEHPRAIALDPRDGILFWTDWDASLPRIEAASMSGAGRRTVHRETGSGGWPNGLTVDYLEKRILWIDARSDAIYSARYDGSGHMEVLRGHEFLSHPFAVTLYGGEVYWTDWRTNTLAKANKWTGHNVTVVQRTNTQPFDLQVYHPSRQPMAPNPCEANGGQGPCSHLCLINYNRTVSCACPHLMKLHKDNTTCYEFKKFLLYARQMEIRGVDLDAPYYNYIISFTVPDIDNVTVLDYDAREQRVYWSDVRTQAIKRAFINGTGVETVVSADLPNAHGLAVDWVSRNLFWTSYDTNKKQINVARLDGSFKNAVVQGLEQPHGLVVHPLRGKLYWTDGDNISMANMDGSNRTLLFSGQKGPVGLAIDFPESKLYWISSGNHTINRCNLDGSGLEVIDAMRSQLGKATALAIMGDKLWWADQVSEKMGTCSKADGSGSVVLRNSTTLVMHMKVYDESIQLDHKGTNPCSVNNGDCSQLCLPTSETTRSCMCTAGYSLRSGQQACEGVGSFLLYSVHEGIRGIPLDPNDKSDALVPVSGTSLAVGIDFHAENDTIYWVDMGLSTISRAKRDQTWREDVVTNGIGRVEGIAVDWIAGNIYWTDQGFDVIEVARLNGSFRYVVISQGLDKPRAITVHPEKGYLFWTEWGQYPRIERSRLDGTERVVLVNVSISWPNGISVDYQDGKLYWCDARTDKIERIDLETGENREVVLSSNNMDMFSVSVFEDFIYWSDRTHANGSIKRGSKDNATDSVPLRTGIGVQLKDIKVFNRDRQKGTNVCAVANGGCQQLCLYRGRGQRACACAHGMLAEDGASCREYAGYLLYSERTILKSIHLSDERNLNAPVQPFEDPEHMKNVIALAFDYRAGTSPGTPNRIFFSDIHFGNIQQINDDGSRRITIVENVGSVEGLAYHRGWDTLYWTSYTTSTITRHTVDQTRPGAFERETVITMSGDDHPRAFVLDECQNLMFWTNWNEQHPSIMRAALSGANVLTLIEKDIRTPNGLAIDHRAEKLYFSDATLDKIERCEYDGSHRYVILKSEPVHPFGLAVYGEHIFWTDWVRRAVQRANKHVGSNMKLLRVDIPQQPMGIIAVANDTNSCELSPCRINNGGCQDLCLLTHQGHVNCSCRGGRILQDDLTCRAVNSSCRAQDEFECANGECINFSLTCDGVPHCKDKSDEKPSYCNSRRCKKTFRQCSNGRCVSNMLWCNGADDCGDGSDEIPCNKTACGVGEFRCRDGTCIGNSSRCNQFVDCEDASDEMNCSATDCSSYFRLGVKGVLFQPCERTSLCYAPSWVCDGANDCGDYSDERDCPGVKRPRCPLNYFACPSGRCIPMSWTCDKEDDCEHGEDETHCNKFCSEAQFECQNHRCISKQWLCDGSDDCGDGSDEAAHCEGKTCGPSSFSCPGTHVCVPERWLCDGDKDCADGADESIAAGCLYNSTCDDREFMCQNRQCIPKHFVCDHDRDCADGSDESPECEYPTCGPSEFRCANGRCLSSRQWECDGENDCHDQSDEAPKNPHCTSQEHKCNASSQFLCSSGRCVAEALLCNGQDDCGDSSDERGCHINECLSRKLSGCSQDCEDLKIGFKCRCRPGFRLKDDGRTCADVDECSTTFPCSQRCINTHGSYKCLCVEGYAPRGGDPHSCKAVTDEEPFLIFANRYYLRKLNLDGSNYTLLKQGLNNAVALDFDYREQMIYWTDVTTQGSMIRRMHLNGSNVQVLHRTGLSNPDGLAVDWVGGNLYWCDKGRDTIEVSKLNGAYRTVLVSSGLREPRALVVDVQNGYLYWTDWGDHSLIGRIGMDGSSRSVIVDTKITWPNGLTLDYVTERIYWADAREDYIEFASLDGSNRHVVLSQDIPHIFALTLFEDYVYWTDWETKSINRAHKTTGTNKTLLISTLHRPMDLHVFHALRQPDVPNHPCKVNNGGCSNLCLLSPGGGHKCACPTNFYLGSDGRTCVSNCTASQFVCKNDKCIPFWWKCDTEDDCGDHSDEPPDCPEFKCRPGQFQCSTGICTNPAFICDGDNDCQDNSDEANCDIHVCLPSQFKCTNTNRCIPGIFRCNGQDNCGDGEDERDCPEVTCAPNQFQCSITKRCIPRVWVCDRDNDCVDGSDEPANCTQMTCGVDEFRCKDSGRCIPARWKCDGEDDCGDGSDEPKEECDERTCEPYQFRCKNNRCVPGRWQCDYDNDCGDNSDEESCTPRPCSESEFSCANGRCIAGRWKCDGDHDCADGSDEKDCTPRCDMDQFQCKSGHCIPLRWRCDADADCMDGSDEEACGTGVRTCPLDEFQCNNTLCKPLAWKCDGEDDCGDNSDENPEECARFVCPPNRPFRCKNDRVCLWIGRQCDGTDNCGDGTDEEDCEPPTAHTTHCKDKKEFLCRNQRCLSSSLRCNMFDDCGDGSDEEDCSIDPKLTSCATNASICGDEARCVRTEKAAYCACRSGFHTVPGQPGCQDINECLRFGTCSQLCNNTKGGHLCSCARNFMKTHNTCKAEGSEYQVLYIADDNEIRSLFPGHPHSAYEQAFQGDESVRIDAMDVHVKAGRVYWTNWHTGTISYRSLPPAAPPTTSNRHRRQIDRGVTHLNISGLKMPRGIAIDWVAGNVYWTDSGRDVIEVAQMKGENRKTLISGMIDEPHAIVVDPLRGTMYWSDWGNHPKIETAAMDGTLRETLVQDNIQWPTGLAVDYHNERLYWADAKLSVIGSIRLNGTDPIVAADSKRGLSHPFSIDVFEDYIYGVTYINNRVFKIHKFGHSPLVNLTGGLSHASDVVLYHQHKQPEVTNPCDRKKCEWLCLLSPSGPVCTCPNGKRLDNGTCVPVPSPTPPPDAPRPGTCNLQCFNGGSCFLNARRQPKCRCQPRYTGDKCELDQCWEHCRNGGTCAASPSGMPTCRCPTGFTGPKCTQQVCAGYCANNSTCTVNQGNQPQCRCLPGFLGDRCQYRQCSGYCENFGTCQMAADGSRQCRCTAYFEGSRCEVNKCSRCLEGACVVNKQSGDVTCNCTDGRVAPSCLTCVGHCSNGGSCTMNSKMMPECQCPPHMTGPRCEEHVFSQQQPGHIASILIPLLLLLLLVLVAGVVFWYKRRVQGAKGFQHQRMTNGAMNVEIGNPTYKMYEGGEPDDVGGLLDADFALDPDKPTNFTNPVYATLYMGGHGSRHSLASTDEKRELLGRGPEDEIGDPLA

Substance | Binding to Megalin (Megalin) | Binding to LRP (LRP) | other results
Albumin | Yes | – | –
Plasminogen: plasminogen | Yes | – | –
tPA: tissue type plasminogen activator | Yes | Yes | –
β-amyloid peptide 1-40: β-amyloid peptide 1-40 [reference compound] | – | – | Competition with p97 for receptor binding in human brain capillaries, repeat experiment (human brain capillaries; performed identically to FIG. 5 (FIG. 6)): competes with p97 for receptor binding; Effect on transcytosis of 125I-p97 (BBCEC monolayers; competitor 5 micromolar (FIG. 10a, 10b)): failed to slow or reduce
βAPP: β-amyloid precursor protein | – | Yes | Binding to VLDL-R (VLDL-R): Yes
Gentamycin [reference compound] | Yes | Yes | –
human holo-transferrin: human holo-transferrin | – | – | Inhibition of the uptake of [125I]-p97 into isolated human brain capillaries (human brain capillaries; 50-fold molar excess, [125I]-p97 100 nM, 1 h at 37° C. (FIG. 16a)): had no effect; Reduction of apical-to-basal transport of [125I]-p97 (BBCEC monolayers; 200-fold molar excess of competitor, [125I]-p97 25 nM (FIG. 15a, 15b)): had no impact
ApoE: Apolipoprotein E | Yes | Yes | Binding to ER-2 (ER-2): Yes; Binding to VLDL-R (VLDL-R): Yes; Binding to LR11 (LR11): Yes
Thyroglobulin: thyroglobulin | Yes | – | Binding to ER-2 (ER-2): Yes; Binding to LR11 (LR11): Yes
α1-chymotrypsin/cathepsin G: protease/inhibitor complex | Yes | No | –
ApoJ/clusterin: ApoJ/clusterin | Yes | – | –
Pseudomonas Exotoxin A | No | Yes | –
Tissue factor inhibitor: tissue factor inhibitor | – | Yes | –
Thrombospondin-1: thrombospondin-1 | – | Yes | Binding to VLDL-R (VLDL-R): Yes
Activated α2-macroglobulin: activated α2-macroglobulin | No | Yes | –
ApoB100: apolipoprotein B 100 | Yes | – | Binding to LDL-R (LDL-R): Yes
Polymixin B [reference compound] | Yes | Yes | –
